Laboratory results: patent EP1506971A1 (The Regents of the University of California, dated 2005)

Molecular target: prokineticin receptor(s) of guinea pig ileal membrane / ileal smooth muscle (guinea pig)
Experiment: cell-based or functional assay

- EC50 of ileal smooth muscle contraction, relative to prokineticin 1 or prokineticin 2: ~8 fold
B1: chimeric prokineticin 21 (exons 1 and 2 of prokineticin 2, exon 3 of prokineticin 1) (ligand)
chain: AVITGACDKDSQCGGGMCCAVSIWVKSIRICTPMGKLGDSCHPLTRKVPFFRKRKHHTCPCLPNLLCSRFPDGRYRCSMDLKNINF
